The data set deals with the molecule itself. In words: SEC.

B1: MLKL N-terminal domain of 139 amino acid residues (domain or fragment, human, UniProt Q8NB16 1-139, looked up)
chain: MENLKHIITLGQVIHKRCEEMKYCKKQCRRLGHRVLGLIKPLEMLQDQGKRSVPSEKLTTAMNRFKAALEEANGEIEKFSNRSNICRFLTASQDKILFKDVNRKLSDVWKELSLLLQVEQRMPVSPISQGASWAQEDQQ
For the protein B1, the binding result is given as “binds”.

B2: MLKL N-terminal domain of 154 amino acid residues with mutation D144K (domain or fragment, human, UniProt Q8NB16 1-154, looked up)
chain: MENLKHIITLGQVIHKRCEEMKYCKKQCRRLGHRVLGLIKPLEMLQDQGKRSVPSEKLTTAMNRFKAALEEANGEIEKFSNRSNICRFLTASQDKILFKDVNRKLSDVWKELSLLLQVEQRMPVSPISQGASWAQEDQQDADEKRRAFQMLRRD
Regarding B2, the binding result is recorded as “binds”.
